# T1: His6-SAV576 (TetR family regulator) (Streptomyces avermitilis ATCC31267, UniProt Q82QD4 1-218)
# T1 sequence: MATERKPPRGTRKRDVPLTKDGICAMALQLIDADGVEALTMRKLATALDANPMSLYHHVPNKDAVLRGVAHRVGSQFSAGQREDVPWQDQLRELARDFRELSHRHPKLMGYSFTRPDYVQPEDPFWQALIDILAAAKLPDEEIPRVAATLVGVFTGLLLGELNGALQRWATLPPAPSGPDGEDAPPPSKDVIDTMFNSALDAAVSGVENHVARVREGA
# Molecular target: T1, His6-SAV576 (TetR family regulator)
# Assay: EMSA; EMSA: Roche DIG Gel Shift Kit binding buffer (composition not stated), 0.3 nM probe, 1 µg poly[d(I-C)] in 20 µl, 25°C 30 min, 5% PAGE 0.5x TBE; footprinting: 400 ng DNA in 50 µl, 25°C 30 min, DNase I at 37°C
# Conditions: protein: recombinant; tags: His6 (pET-28a); chain copies: 2; label: 3' DIG; blunt
row,Binder,binding result
1,probe 2m (dsDNA) DNA 1: CCCAGGTCTGCCGATTGAGTTTCGAATTCTAAGCTTGTACTAC DNA 2: GTAGTACAAGCTTAGAATTCGAAACTCAATCGGCAGACCTGGG,no binding
2,probe 6 (dsDNA) DNA 1: AGTCGCCATACGCTGTACGGTACCAGCGCCCGCGGCACTGCGG DNA 2: CCGCAGTGCCGCGGGCGCTGGTACCGTACAGCGTATGGCGACT,binds
3,probe 1m (dsDNA) DNA 1: TGAAGCGAATTCGAAGCTTGAAACGGGGCGCTGCCGTACCGGC DNA 2: GCCGGTACGGCAGCGCCCCGTTTCAAGCTTCGAATTCGCTTCA,no binding
4,probe 2 (dsDNA) DNA 1: CCCAGGTCTGCCGATTGAGTTTCCATACGTCGTATGGTACTAC DNA 2: GTAGTACCATACGACGTATGGAAACTCAATCGGCAGACCTGGG,binds
5,probe 6m (dsDNA) DNA 1: AGTCGCGAATTCCAAGCTTGTACCAGCGCCCGCGGCACTGCGG DNA 2: CCGCAGTGCCGCGGGCGCTGGTACAAGCTTGGAATTCGCGACT,no binding

# From PMC3742746, “A Novel TetR Family Transcriptional Regulator, SAV576, Negatively Controls Avermectin Biosynthesis in Streptomyces avermitilis”
